This note sets out measurements from patent JP2005027671A (dated 2005).

Residue numbers refer to the chain shown, from its start.

Experiment [1] has as its target T1, 可溶性ヒトVEGF受容体KDR 7N (human, UniProt P35968 20-757).
T1 construct: range 1-738; The range 1-738 counts on the mature protein (after the 19-residue signal peptide)
Kind of experiment: ELISA, coated antigen from 10 ug/ml in 3-fold dilutions.

Experiment [2] concerns the target T1, 可溶性ヒトVEGF受容体KDR 7N. Kind of experiment: ELISA, coated antigen 4 ug/ml.
Experiment [3] addresses T2, 可溶性ヒトVEGF受容体Flt-1 7N (human, UniProt P17948 27-750).
T2 construct: range 1-750; also called 可溶性ヒトFlt-1 7N
The experiment can be described thus: inhibition of 125I-VEGF binding to coated Flt-1 7N, purified antibody.

Experiment [4] concerns the target T3, ヒトVEGF受容体Flt-1(細胞表面発現) (human, UniProt P17948 27-1338).
T3 construct: whole, on cells; also called NIH3T3-Flt-1細胞; ヒトVEGF受容体Flt-1発現NIH3T3細胞
Kind of experiment: inhibition of 125I-VEGF binding to NIH3T3-Flt-1 cells, purified antibody.

Experiment [5] concerns the target T1, 可溶性ヒトVEGF受容体KDR 7N. Kind of experiment: ELISA, coated antigen 4 ug/ml, antibody titrated.

T1 sequence (P35968 20-757): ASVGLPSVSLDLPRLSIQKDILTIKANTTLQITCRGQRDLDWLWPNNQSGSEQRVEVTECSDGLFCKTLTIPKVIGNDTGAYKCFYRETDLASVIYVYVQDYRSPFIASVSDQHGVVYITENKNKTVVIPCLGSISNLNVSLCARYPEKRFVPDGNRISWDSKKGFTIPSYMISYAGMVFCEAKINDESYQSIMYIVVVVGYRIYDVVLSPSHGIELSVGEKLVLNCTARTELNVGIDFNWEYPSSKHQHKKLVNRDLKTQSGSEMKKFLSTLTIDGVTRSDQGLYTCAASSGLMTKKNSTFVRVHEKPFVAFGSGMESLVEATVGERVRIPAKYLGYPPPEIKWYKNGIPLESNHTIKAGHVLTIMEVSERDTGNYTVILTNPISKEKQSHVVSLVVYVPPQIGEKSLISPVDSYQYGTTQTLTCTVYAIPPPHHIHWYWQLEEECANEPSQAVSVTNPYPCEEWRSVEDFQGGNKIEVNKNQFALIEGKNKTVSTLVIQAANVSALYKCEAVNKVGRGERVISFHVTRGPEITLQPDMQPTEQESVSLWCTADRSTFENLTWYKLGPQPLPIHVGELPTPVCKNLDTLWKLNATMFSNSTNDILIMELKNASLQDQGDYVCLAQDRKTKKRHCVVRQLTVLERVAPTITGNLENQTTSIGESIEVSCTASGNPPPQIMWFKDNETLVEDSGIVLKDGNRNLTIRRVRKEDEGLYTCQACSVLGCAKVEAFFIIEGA

B1: 抗ヒトVEGF受容体Flt-1ヒト型CDR移植抗体KM8550 (antibody, V domains shown)
VH: QVQLVQSGAEVKKPGASVKVSCKASGYTFINYNMHWVRQAPGQGLEWMGAIFPGNGFTSYNQKFKGRVTITVDKSTSTAYMELSSLRSEDTAVYYCARDGDYYFDYWGQGTLVTVSS
VL: DIQMTQSPSSLSASVGDRVTITCSASSSVSYMHWYQQKPGKAPKLLIYRTSNLASGVPSRFSGSGSGTDFTLTISSLQPEDFATYYCHQWSMYTFGQGTKVEIK
notes: CDR-grafted IgG derived from KM1750; also called pKANTEX1750HV0LV0(I); 1750HV0 + 1750LV0(I)
On to B1, for which the binding result in experiment [1] is given as “no binding (tested: 5μg/ml)”.

B2: 抗ヒトVEGF受容体Flt-1ヒト型CDR移植抗体KM8551 (antibody, V domains shown)
VH: B1 VH
VL: DIVMTQSPDSLAVSLGERATINCSASSSVSYMHWYQQKPGQPPKLLIYRTSNLASGVPDRFSGSGSGTDFTLTISSLQAEDVAVYYCHQWSMYTFGQGTKVEIK
notes: CDR-grafted IgG derived from KM1750; also called pKANTEX1750HV0LV0(IV); 1750HV0 + 1750LV0(IV)
B2: the binding result in experiment [1] is recorded as “no binding (tested: 5μg/ml)”.

B3: 抗ヒトVEGF受容体Flt-1ヒト型CDR移植抗体KM8554 (antibody, V domains shown)
VH: B1 VH
VL: B1 VL with D17E, R18E, D69F, F70Y
notes: CDR-grafted IgG derived from KM1750 with modified VL framework; also called pKANTEX1750HV0LV4; 1750HV0 + 1750LV4
As to B3, the binding result in experiment [1] is “no binding (tested: 5μg/ml)”.

B4: 抗ヒトVEGF受容体Flt-1ヒト型CDR移植抗体KM8552 (antibody, V domains shown)
VH: B1 VH with E82Q, S84R, Y95F
VL: B1 VL
notes: CDR-grafted IgG derived from KM1750 with modified VH framework; also called pKANTEX1750HV3LV0(I); 1750HV3 + 1750LV0(I)
As for B4, the binding result in experiment [1] is given as “no binding (tested: 5μg/ml)”.

B5: 抗ヒトVEGF受容体Flt-1ヒト型CDR移植抗体KM8553 (antibody, V domains shown)
VH: B1 VH with E82Q, S84R, Y95F
VL: B2 VL
notes: CDR-grafted IgG derived from KM1750 with modified VH framework; also called pKANTEX1750HV3LV0(IV); 1750HV3 + 1750LV0(IV)
As for B5, the binding result in experiment [1] is on record as “no binding (tested: 5μg/ml)”.

B6: 抗ヒトVEGF受容体Flt-1ヒト型CDR移植抗体KM8555 (antibody, V domains shown)
VH: B1 VH with E82Q, S84R, Y95F
VL: B1 VL with D17E, R18E, D69F, F70Y
notes: CDR-grafted IgG derived from KM1750 with modified VH and VL frameworks; also called pKANTEX1750HV3LV4; 1750HV3 + 1750LV4
Regarding B6, the binding result in experiment [1] is on record as “no binding (tested: 5μg/ml)”.

B7: 抗ヒトVEGF受容体Flt-1マウスモノクローナル抗体KM1750 (antibody, V domains shown)
VH: QAFLQQSGAELVRPGASVKMSCKASGYTFINYNMHWVKQTPRQGLEWIGAIFPGNGFTSYNQKFKGKATLTVDKSSSTVYMQLRSLTSEDSAVYFCARDGDYYFDYWGQGTTLTVSS
VL: QIVLTQSPAIMSASLGEEITLTCSASSSVSYMHWYQQKSGTSPKLLIYRTSNLASGVPFRFSGSGSGTFYSLTISSVEAEDAADYYCHQWSMYTFGGGTKLEIK
notes: cDNAs were cloned with mouse Cgamma1 and Ckappa probes; also called FERM BP-5700
Turning to B7, the binding result in experiment [2] was “no binding (tested: 0.1μg/ml)”. Also, the results for the IC50 in experiment [3] and in experiment [4] were 2 µg/mL and 0.041 µg/mL, respectively.

B8: 抗ヒトVEGF受容体Flt-1ヒト型キメラ抗体KM2550 (antibody, V domains shown)
VH: B7 VH
VL: B7 VL
notes: Expressed in YB2/0 cells; also called pKANTEX1750
In the case of B8, the binding result in experiment [5] is “no binding (tested: 0.0152〜100ng/ml)”.

B9: 抗ヒトVEGF受容体Flt-1マウスモノクローナル抗体KM1732 (antibody, V domains shown)
VH: QGQMQQSGAELVKPGASVKLSCKPSGFTFSSNYISWLKQKPGQSLEWIAWIYAGTGDASYNQKFTAKAHVTVDTSSSTAYMQLSSLTTEDSAIYYCARHGGDGYWFAYWGQGTLVTVSA
VL: QLVLTQSPAIMSASQGEKVTMTCSASSSVSYMHWYQQKSGTSPKRWIYDTSKLPSGVPARFSGSGSGTSYSLTISSMEAEDAATYYCQQWSSNPPTFGAGTKLELK
notes: Mouse hybridoma IgG (Balb/c mouse immunised with Flt-1 7N, screened on Flt-1 3N); cDNAs were cloned with mouse Cgamma1 and Ckappa probes; also called FERM BP-5698
With B9, the binding result in experiment [2] is given as “no binding (tested: 0.1μg/ml)”. The IC50 in experiment [3] came to 1.1 µg/mL; in experiment [4], 0.05 µg/mL.

B10: 抗ヒトVEGF受容体Flt-1ヒト型キメラ抗体KM2532 (antibody, V domains shown)
VH: B9 VH
VL: B9 VL
notes: Expressed in YB2/0 cells; also called pKANTEX1732
For B10, the binding result in experiment [5] was “no binding (tested: 0.0152〜100ng/ml)”.
